From patent US11807868

Assays:
Experiment in all cases: cell-based or functional assay
[1] = target: SM 100-10 variant AAV capsid (Adeno-associated virus 2 (isolate Srivastava/1982) (AAV-2)) (UniProt P03135)
[2] = target: AAV2 capsid variant 1.45 (adeno-associated virus type 2 (AAV2)) (UniProt P03135)
[3] = target: AAV2 capsid variant γ4.3 (adeno-associated virus type 2 (AAV2)) (UniProt P03135)
[4] = target: SM 10-8 variant AAV capsid (Adeno-associated virus 2 (isolate Srivastava/1982) (AAV-2)) (UniProt P03135)
[5] = target: wild-type AAV2 capsid (adeno-associated virus type 2 (AAV2)) (UniProt P03135)
[6] = target: SM 10-2 variant AAV capsid (Adeno-associated virus 2 (isolate Srivastava/1982) (AAV-2)) (UniProt P03135)
[7] = target: wild-type AAV8 capsid (adeno-associated virus type 8 (AAV8))
[8] = target: SM 100-3 variant AAV capsid (Adeno-associated virus 2 (isolate Srivastava/1982) (AAV-2)) (UniProt P03135)
[9] = target: wild-type AAV1 capsid (adeno-associated virus type 1 (AAV1))

Q: “Gamimune N, 10% Human IVIG (Bayer, Elkhart Ind.)” was tested. Which Fold Resistance Relative to AAV2 [1] did it give?
A: 4.39 fold

Q: What about the Neutralizing IVIG concentration (IVIG required to reduce gene delivery efficiency to 50% of that in the absence of IVIG) [1] of the same substance?
A: 0.066 mg/mL

Q: And the fold enhanced resistance to pooled human IVIg compared to wild-type AAV2 [2]?
A: 1.23 fold

Q: And the fold enhanced resistance to pooled human IVIg compared to wild-type AAV2 [3]?
A: 3.1 fold

Q: And the Fold Resistance Relative to AAV2 [4]?
A: 3.41 fold

Q: And the Neutralizing IVIG concentration (IVIG required to reduce gene delivery efficiency to 50% of that in the absence of IVIG) [4]?
A: 0.051 mg/mL

Q: What about the Fold Resistance Relative to AAV2 [5] of the same substance?
A: 1 fold

Q: What about the Neutralizing IVIG concentration (IVIG required to reduce gene delivery efficiency to 50% of that in the absence of IVIG) [5] of the same substance?
A: 0.015 mg/mL

Q: What about the Fold Resistance Relative to AAV2 [6] of the same substance?
A: 7.52 fold

Q: And the Neutralizing IVIG concentration (IVIG required to reduce gene delivery efficiency to 50% of that in the absence of IVIG) [6]?
A: 0.113 mg/mL

Q: And the Fold Resistance Relative to AAV2 [7]?
A: 6.11 fold

Q: And the Neutralizing IVIG concentration (IVIG required to reduce gene delivery efficiency to 50% of that in the absence of IVIG) [7]?
A: 0.092 mg/mL

Q: And the Fold Resistance Relative to AAV2 [8]?
A: 4.94 fold

Q: And the Neutralizing IVIG concentration (IVIG required to reduce gene delivery efficiency to 50% of that in the absence of IVIG) [8]?
A: 0.074 mg/mL

Q: What about the Fold Resistance Relative to AAV2 [9] of the same substance?
A: 1.76 fold

Q: And the Neutralizing IVIG concentration (IVIG required to reduce gene delivery efficiency to 50% of that in the absence of IVIG) [9]?
A: 0.026 mg/mL
